How the values were obtained:
[1] = biological target: Human CD44v6 iso4-Fc (human) (UniProt P16070); assay: SPR SCK, antibody captured via anti-kappa, CD44v6-Fc injected; apparent KD
[2] = biological target: Human CD44v6 iso4-Fc (human) (UniProt P16070); assay: SPR SCK, antibody captured via anti-kappa, CD44v6-Fc injected
Human v6-peptide (human) [3] = biological target: T1, Human v6-peptide (human); assay: SPR SCK, biotin-peptide on SA chip, antibody injected
T1 sequence (peptide, N-terminal biotin): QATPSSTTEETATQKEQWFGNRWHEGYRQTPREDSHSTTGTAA

Human v6-peptide (human) [4] = biological target: T1, Human v6-peptide (human); assay: SPR SCK, biotin-peptide on SA chip, antibody injected; apparent KD
[5] = biological target: CD44v6 on cultured cancer cells (BHT-101, ACT-1, A431) (human) (UniProt P16070); assay: LigandTracer, 177Lu-antibody on A431 cells
FcyR1 = assay: SPR
FcyR1, sequence (P12314 16-292): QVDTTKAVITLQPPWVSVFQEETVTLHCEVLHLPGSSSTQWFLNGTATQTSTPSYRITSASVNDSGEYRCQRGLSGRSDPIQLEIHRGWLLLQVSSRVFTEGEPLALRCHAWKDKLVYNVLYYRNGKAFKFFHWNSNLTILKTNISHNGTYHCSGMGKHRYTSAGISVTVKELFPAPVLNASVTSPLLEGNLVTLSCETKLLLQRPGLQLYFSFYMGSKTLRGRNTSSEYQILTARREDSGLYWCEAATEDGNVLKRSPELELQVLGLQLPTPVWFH

Human CD44v6 iso4-Fc (human), sequence (P16070 other isoform, or with tags, fused parts or gaps limits assumed): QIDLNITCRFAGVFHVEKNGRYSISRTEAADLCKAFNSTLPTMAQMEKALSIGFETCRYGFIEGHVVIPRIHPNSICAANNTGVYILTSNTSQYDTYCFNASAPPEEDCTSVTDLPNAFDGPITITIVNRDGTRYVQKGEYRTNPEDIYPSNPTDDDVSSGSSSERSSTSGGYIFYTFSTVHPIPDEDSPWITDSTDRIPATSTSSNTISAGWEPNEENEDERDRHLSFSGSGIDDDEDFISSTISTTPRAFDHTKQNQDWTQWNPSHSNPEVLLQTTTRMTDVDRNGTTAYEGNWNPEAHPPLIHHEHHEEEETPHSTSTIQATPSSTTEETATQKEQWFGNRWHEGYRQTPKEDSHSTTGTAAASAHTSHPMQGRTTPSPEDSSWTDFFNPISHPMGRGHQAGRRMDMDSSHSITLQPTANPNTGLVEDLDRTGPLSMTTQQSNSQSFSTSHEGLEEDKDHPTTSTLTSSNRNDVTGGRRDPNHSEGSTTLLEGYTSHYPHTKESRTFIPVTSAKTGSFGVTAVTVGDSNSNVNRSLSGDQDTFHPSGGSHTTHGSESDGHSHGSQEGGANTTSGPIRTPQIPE

Row | Kd [1] | koff [2] | kon [2] | koff (Human v6-peptide (human) [3]) | kon (Human v6-peptide (human) [3]) | Kd (Human v6-peptide (human) [4]) | Kd [5] | Kd (FcyR1) | Substance
1 | 48 nM | 0.00031 s⁻¹ | 6500 M⁻¹ s⁻¹ | 0.00017 s⁻¹ | 190000 M⁻¹ s⁻¹ | 0.88 nM | 0.3 nM | – | BIWA-4 IgG4 S228P (antibody)
2 | – | – | – | – | – | – | – | 0.18 nM | Herceptin (antibody)

— patent US20250340662A1
